Data: PMC5563082
Values belong to the binder of their own block, whether it stands above or below them.

Assays:
[1] = molecular target: human NL1(–A+B)_(ECTO), immobilised for SPR (human); assay: SPR; biotinylated NL_(ECTO)-Avitag variants captured from dialysed conditioned medium on streptavidin CM5 chip (500 RU; 550 RU for the ΔSite series; 1000 RU for NL3 and NL3 Arg451Cys in the R451C series); β-NRX1_(LNS6)(±4), MDGA1_(ECTO), MDGA2_(ECTO) injected, 15 concentrations, two-fold series from 50 μM; TBS-CTB (10 mM Tris pH 7.4, 150 mM NaCl, 3 mM CaCl2, 0.005% Tween-20, 1.0 g/L BSA); equilibrium analysis, 1:1 Langmuir model
Chain of human NL1(–A+B)_(ECTO), immobilised for SPR (human) (Q8N2Q7 whole entry): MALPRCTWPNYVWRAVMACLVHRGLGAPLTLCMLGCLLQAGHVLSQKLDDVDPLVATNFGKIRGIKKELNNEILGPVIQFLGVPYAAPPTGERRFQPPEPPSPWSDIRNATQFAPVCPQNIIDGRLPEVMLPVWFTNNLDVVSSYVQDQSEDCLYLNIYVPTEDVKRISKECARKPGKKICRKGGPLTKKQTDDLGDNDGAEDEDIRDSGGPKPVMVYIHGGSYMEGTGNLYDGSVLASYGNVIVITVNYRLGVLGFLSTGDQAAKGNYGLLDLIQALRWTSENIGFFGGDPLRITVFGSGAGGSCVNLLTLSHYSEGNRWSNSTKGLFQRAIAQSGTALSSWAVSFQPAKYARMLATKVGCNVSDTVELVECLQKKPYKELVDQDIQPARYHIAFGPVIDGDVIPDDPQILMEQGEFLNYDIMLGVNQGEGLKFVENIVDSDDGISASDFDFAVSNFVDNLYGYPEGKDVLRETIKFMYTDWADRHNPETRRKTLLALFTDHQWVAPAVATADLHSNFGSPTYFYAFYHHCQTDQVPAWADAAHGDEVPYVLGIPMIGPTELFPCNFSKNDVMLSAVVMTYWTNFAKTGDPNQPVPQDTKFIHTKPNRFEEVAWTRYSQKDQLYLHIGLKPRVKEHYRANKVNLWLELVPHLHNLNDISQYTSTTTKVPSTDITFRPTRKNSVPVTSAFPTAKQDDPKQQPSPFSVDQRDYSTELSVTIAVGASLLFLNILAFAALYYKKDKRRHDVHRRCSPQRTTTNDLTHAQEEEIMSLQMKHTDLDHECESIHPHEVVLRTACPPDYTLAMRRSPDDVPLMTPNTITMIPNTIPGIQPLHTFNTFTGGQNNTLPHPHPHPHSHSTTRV

[2] = molecular target: human NL1(–A–B)_(ECTO), biotinylated and immobilised for SPR (human); assay: as above
Chain of human NL1(–A–B)_(ECTO), biotinylated and immobilised for SPR (human) (Q8N2Q7 whole entry): as above

fold weaker than with NL1(–A–B) (ECTO) [1]: 7 fold
Kd [2]: 1000 nM
B1: human MDGA2 extracellular domain (MDGA2_(ECTO); Gln21-Lys927) (domain or fragment)
chain: QGVYAPPTVRIVHSGLACNIEEERYSERVYTIREGETLELTCLVTGHPRPQIRWTKTAGSASDRFQDSSVFNETLRITNIQRHQGGRYYCKAENGLGSPAIKSIRVDVYYLDDPVVTVHQSIGEAKEQFYYERTVFLRCVANSNPPVRYSWRRGQEVLLQGSDKGVEIYEPFFTQGETKILKLKNLRPQDYANYSCIASVRNVCNIPDKMVSFRLSNKTASPSIKLLVDDPIVVNPGEAITLVCVTTGGEPAPSLTWVRSFGTLPEKTVLNGGTLTIPAITSDDAGTYSCIANNNVGNPAKKSTNIIVRALKKGRFWITPDPYHKDDNIQIGREVKISCQVEAVPSEELTFSWFKNGRPLRSSERMVITQTDPDVSPGTTNLDIIDLKFTDFGTYTCVASLKGGGISDISIDVNISSSTVPPNLTVPQEKSPLVTREGDTIELQCQVTGKPKPIILWSRADKEVAMPDGSMQMESYDGTLRIVNVSREMSGMYRCQTSQYNGFNVKPREALVQLIVQYPPAVEPAFLEIRQGQDRSVTMSCRVLRAYPIRVLTYEWRLGNKLLRTGQFDSQEYTEYAVKSLSNENYGVYNCSIINEAGAGRCSFLVTGKAYAPEFYYDTYNPVWQNRHRVYSYSLQWTQMNPDAVDRIVAYRLGIRQAGQQRWWEQEIKINGNIQKGELITYNLTELIKPEAYEVRLTPLTKFGEGDSTIRVIKYSAPVNPHLREFHCGFEDGNICLFTQDDTDNFDWTKQSTATRNTKYTPNTGPNADRSGSKEGFYMYIETSRPRLEGEKARLLSPVFSIAPKNPYGPTNTAYCFSFFYHMYGQHIGVLNVYLRLKGQTTIENPLWSSSGNKGQRWNEAHVNIYPITSFQLIFEGIRGPGIEGDIAIDDVSIAEGECAKQDLATK

fold weaker than with NL1(–A–B) (ECTO) [1]: 7 fold
Kd [2]: 2000 nM
B2: human MDGA1 extracellular domain (MDGA1_(ECTO); Gln19-Lys925) (domain or fragment)
chain: QGVYAPAQAQIVHAGQACVVKEDNISERVYTIREGDTLMLQCLVTGHPRPQVRWTKTAGSASDKFQETSVFNETLRIERIARTQGGRYYCKAENGVGVPAIKSIRVDVQYLDEPMLTVHQTVSDVRGNFYQEKTVFLRCTVNSNPPARFIWKRGSDTLSHSQDNGVDIYEPLYTQGETKVLKLKNLRPQDYASYTCQVSVRNVCGIPDKAITFRLTNTTAPPALKLSVNETLVVNPGENVTVQCLLTGGDPLPQLQWSHGPGPLPLGALAQGGTLSIPSVQARDSGYYNCTATNNVGNPAKKTVNLLVRSMKNATFQITPDVIKESENIQLGQDLKLSCHVDAVPQEKVTYQWFKNGKPARMSKRLLVTRNDPELPAVTSSLELIDLHFSDYGTYLCMASFPGAPVPDLSVEVNISSETVPPTISVPKGRAVVTVREGSPAELQCEVRGKPRPPVLWSRVDKEAALLPSGLPLEETPDGKLRLERVSRDMSGTYRCQTARYNGFNVRPREAQVQLNVQFPPEVEPSSQDVRQALGRPVLLRCSLLRGSPQRIASAVWRFKGQLLPPPPVVPAAAEAPDHAELRLDAVTRDSSGSYECSVSNDVGSAACLFQVSAKAYSPEFYFDTPNPTRSHKLSKNYSYVLQWTQREPDAVDPVLNYRLSIRQLNQHNAVVKAIPVRRVEKGQLLEYILTDLRVPHSYEVRLTPYTTFGAGDMASRIIHYTEPINSPNLSDNTCHFEDEKICGYTQDLTDNFDWTRQNALTQNPKRSPNTGPPTDISGTPEGYYMFIETSRPRELGDRARLVSPLYNASAKFYCVSFFYHMYGKHIGSLNLLVRSRNKGALDTHAWSLSGNKGNVWQQAHVPISPSGPFQIIFEGVRGPGYLGDIAIDDVTLKKGECPRKQTDPNK
